Assay results taken from paper PMC10600506, “A potent and broad‐spectrum neutralizing nanobody for SARS‐CoV‐2 viruses, including all major Omicron strains” (MedComm, 2023).

Molecular target: SARS-CoV-2 Omicron BA.1 Spike receptor-binding domain (SARS-CoV-2 Omicron BA.1, strain, biotin on the Avi tag (for phage screening and BLI); not biotinylated for crystallisation)

Binder | binding result
Nb26 (VHH) VHH: AVQLQASGGGFVQPGGSLRLSCAASGNYYPFTFMGWFRQAPGKEREFVSAIVTDYNKNYYADSVKGRFTISRDNSKNTVYLQMNSLRAEDTATYYCAYQDHSLIVESSGHMYWGQGTQVTVSS | binds
Nb8 (VHH) VHH: AVQLQASGGGFVQPGGSLRLSCAASGILGTNTWMGWFRQAPGKEREFVSAINYWTEPEYYADSVKGRFTISRDNSKNTVYLQMNSLRAEDTATYYCAQQNMDLNFDVFAWEYWGQGTQVTVSS | binds
Nb24 (VHH) VHH: AVQLQASGGGFVQPGGSLRLSCAASGHWPWTGFMGWFRQAPGKEREFVSAIVEYGWPTYYADSVKGRFTISRDNSKNTVYLQMNSLRAEDTATYYCAIAGLIAPEFEQMPVYWGQGTQVTVSS | binds
